# Laboratory results from patent US20100260668A1 (published 2010).
# T1: PlGF (UniProt P49763-2 21-149, limits assumed)
# T1 construct: bought antigen coated on the ELISA plate; also called Placental GF
# T1 sequence (looked up): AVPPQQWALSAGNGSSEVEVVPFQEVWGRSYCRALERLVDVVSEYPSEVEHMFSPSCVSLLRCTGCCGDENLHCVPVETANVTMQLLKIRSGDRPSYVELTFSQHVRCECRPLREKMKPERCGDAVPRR
# B1: AB012 (antibody, human IgG1, kappa, V domains shown)
# VH: QVQLVESGGGLVKPGGSLRLSCAASGFTFSDYYMSWIRQAPGKGLEWVSYISSSGSTIYYADSVKGRFTISRDNAKNSLYLQMNSLRAEDTAVYYCARDEYNSGWYVLFDYWGQGTLVTVSS
# VL: DIQMTQSPSSVSASVGDRVTITCRASQGISSWLAWYQQKPGKAPNLLIYEASSLQSGVPSRFGGSGSGTDFTLTISSLQPEDFATYYCQQANGFPWTFGQGTKVEIKR
# B2: DVD573 (bispecific antibody, human IgG1, kappa)
# heavy: not shown
# light: DIVLTQSPDSLAVSLGERVTMNCKSSQSLLNSGMRKSFLAWYQQKPGQSPKLLIYWASTRESGVPDRFTGSGSGTDFTLTISSVQAEDVAVYYCKQSYHLFTFGSGTKLEIKRTVAAPDIQMTQSPSSLSASVGDRVTITCRASQDVSTAVAWYQQKPGKAPKLLIYSASFLYSGVPSRFSGSGSGTDFTLTISSLQPEDFATYYCQQSYTTPPTFGQGTKVEIKRTVAAPSVFIFPPSDEQLKSGTASVVCLLNNFYPREAKVQWKVDNALQSGNSQESVTEQDSKDSTYSLSSTLTLSKADYEKHKVYACEVTHQGLSSPVTKSFNRGEC
# notes: HC linker short, LC linker short; also called DVD-Ig DVD573
# B3: DVD569 (bispecific antibody, human IgG1, kappa)
# heavy: not shown
# light: AIQMTQSSSSFSVSLGDRVTITCKASEDIYNRFAWYQQKPGNAPRLLISGAASLEAGVPSRFSGSGSGQDYTLSITSLQTEDVATYYCQQYWSTPWTFGGGTKLEIKRTVAAPSVFIFPPDIQMTQSPSSLSASVGDRVTITCRASQVIRRSLAWYQQKPGKAPKLLIYAASNLASGVPSRFSGSGSGTDFTLTISSLQPEDFATYYCQQSNTSPLTFGQGTKVEIKRTVAAPSVFIFPPSDEQLKSGTASVVCLLNNFYPREAKVQWKVDNALQSGNSQESVTEQDSKDSTYSLSSTLTLSKADYEKHKVYACEVTHQGLSSPVTKSFNRGEC
# notes: outer AB074 (PlGF), inner AB071 (VEGF); HC linker short, LC linker long; also called DVD-Ig DVD569
# B4: DVD575 (bispecific antibody, human IgG1, kappa)
# heavy: not shown
# light: DIVLTQSPDSLAVSLGERVTMNCKSSQSLLNSGMRKSFLAWYQQKPGQSPKLLIYWASTRESGVPDRFTGSGSGTDFTLTISSVQAEDVAVYYCKQSYHLFTFGSGTKLEIKRTVAAPDIQMTQSPSSLSASVGDRVTITCRASQVIRRSLAWYQQKPGKAPKLLIYAASNLASGVPSRFSGSGSGTDFTLTISSLQPEDFATYYCQQSNTSPLTFGQGTKVEIKRTVAAPSVFIFPPSDEQLKSGTASVVCLLNNFYPREAKVQWKVDNALQSGNSQESVTEQDSKDSTYSLSSTLTLSKADYEKHKVYACEVTHQGLSSPVTKSFNRGEC
# notes: outer AB047 (PlGF), inner AB071 (VEGF); HC linker short, LC linker short; also called DVD-Ig DVD575
# B5: DVD566 (bispecific antibody, human IgG1, kappa)
# heavy: not shown
# light: DIQMTQSPSSLSASVGDRVTITCSASQDISNYLNWYQQKPGKAPKVLIYFTSSLHSGVPSRFSGSGSGTDFTLTISSLQPEDFATYYCQQYSTVPWTFGQGTKVEIKRTVAAPSVFIFPPAIQMTQSSSSFSVSLGDRVTITCKASEDIYNRFAWYQQKPGNAPRLLISGAASLEAGVPSRFSGSGSGQDYTLSITSLQTEDVATYYCQQYWSTPWTFGGGTKLEIKRTVAAPSVFIFPPSDEQLKSGTASVVCLLNNFYPREAKVQWKVDNALQSGNSQESVTEQDSKDSTYSLSSTLTLSKADYEKHKVYACEVTHQGLSSPVTKSFNRGEC
# notes: HC linker short, LC linker long; also called DVD-Ig DVD566
# B6: DVD542 (bispecific antibody, human IgG1, kappa)
# heavy: not shown
# light: DIQMTQSPSSLSASVGDRVTITCSASQDISNYLNWYQQKPGKAPKVLIYFTSSLHSGVPSRFSGSGSGTDFTLTISSLQPEDFATYYCQQYSTVPWTFGQGTKVEIKRTVAAPAIQMTQSSSSFSVSLGDRVTITCKASEDIYNRFAWYQQKPGNAPRLLISGAASLEAGVPSRFSGSGSGQDYTLSITSLQTEDVATYYCQQYWSTPWTFGGGTKLEIKRTVAAPSVFIFPPSDEQLKSGTASVVCLLNNFYPREAKVQWKVDNALQSGNSQESVTEQDSKDSTYSLSSTLTLSKADYEKHKVYACEVTHQGLSSPVTKSFNRGEC
# notes: HC linker short, LC linker short; also called DVD-Ig DVD542
# B7: DVD558 (bispecific antibody, human IgG1, kappa)
# heavy: not shown
# light: B6 light
# notes: HC linker long, LC linker short; also called DVD-Ig DVD558
# B8: DVD544 (bispecific antibody, human IgG1, kappa)
# heavy: not shown
# light: DIQMTQSPSSLSASVGDRVTITCRASQDVSTAVAWYQQKPGKAPKLLIYSASFLYSGVPSRFSGSGSGTDFTLTISSLQPEDFATYYCQQSYTTPPTFGQGTKVEIKRTVAAPAIQMTQSSSSFSVSLGDRVTITCKASEDIYNRFAWYQQKPGNAPRLLISGAASLEAGVPSRFSGSGSGQDYTLSITSLQTEDVATYYCQQYWSTPWTFGGGTKLEIKRTVAAPSVFIFPPSDEQLKSGTASVVCLLNNFYPREAKVQWKVDNALQSGNSQESVTEQDSKDSTYSLSSTLTLSKADYEKHKVYACEVTHQGLSSPVTKSFNRGEC
# notes: HC linker short, LC linker short; also called DVD-Ig DVD544
# B9: DVD560 (bispecific antibody, human IgG1, kappa)
# heavy: not shown
# light: B8 light
# notes: HC linker long, LC linker short; also called DVD-Ig DVD560
# B10: DVD554 (bispecific antibody, human IgG1, kappa)
# heavy: not shown
# light: DIQMTQSPSSLSASVGDRVTITCRASQVIRRSLAWYQQKPGKAPKLLIYAASNLASGVPSRFSGSGSGTDFTLTISSLQPEDFATYYCQQSNTSPLTFGQGTKVEIKRTVAAPSVFIFPPAIQMTQSSSSFSVSLGDRVTITCKASEDIYNRFAWYQQKPGNAPRLLISGAASLEAGVPSRFSGSGSGQDYTLSITSLQTEDVATYYCQQYWSTPWTFGGGTKLEIKRTVAAPSVFIFPPSDEQLKSGTASVVCLLNNFYPREAKVQWKVDNALQSGNSQESVTEQDSKDSTYSLSSTLTLSKADYEKHKVYACEVTHQGLSSPVTKSFNRGEC
# notes: outer AB071 (VEGF), inner AB074 (PlGF); HC linker long, LC linker long; also called DVD-Ig DVD554
# B11: DVD570 (bispecific antibody, human IgG1, kappa)
# heavy: not shown
# light: B10 light
# notes: outer AB071 (VEGF), inner AB074 (PlGF); HC linker short, LC linker long; also called DVD-Ig DVD570
# B12: DVD546 (bispecific antibody, human IgG1, kappa)
# heavy: not shown
# light: DIQMTQSPSSLSASVGDRVTITCRASQVIRRSLAWYQQKPGKAPKLLIYAASNLASGVPSRFSGSGSGTDFTLTISSLQPEDFATYYCQQSNTSPLTFGQGTKVEIKRTVAAPAIQMTQSSSSFSVSLGDRVTITCKASEDIYNRFAWYQQKPGNAPRLLISGAASLEAGVPSRFSGSGSGQDYTLSITSLQTEDVATYYCQQYWSTPWTFGGGTKLEIKRTVAAPSVFIFPPSDEQLKSGTASVVCLLNNFYPREAKVQWKVDNALQSGNSQESVTEQDSKDSTYSLSSTLTLSKADYEKHKVYACEVTHQGLSSPVTKSFNRGEC
# notes: outer AB071 (VEGF), inner AB074 (PlGF); HC linker short, LC linker short; also called DVD-Ig DVD546
# B13: DVD562 (bispecific antibody, human IgG1, kappa)
# heavy: not shown
# light: B12 light
# notes: outer AB071 (VEGF), inner AB074 (PlGF); HC linker long, LC linker short; also called DVD-Ig DVD562
# B14: DVD552 (bispecific antibody, human IgG1, kappa)
# heavy: not shown
# light: DIQMTQSPSSLSASVGDRVTITCRASQDVSTAVAWYQQKPGKAPKLLIYSASFLYSGVPSRFSGSGSGTDFTLTISSLQPEDFATYYCQQSYTTPPTFGQGTKVEIKRTVAAPSVFIFPPAIQMTQSSSSFSVSLGDRVTITCKASEDIYNRFAWYQQKPGNAPRLLISGAASLEAGVPSRFSGSGSGQDYTLSITSLQTEDVATYYCQQYWSTPWTFGGGTKLEIKRTVAAPSVFIFPPSDEQLKSGTASVVCLLNNFYPREAKVQWKVDNALQSGNSQESVTEQDSKDSTYSLSSTLTLSKADYEKHKVYACEVTHQGLSSPVTKSFNRGEC
# notes: HC linker long, LC linker long; also called DVD-Ig DVD552
# B15: DVD568 (bispecific antibody, human IgG1, kappa)
# heavy: not shown
# light: B14 light
# notes: HC linker short, LC linker long; also called DVD-Ig DVD568
# Target: T2, HGF (UniProt P14210 32-728)
# T2 construct: Bought reagent
# T2 sequence (P14210 32-728 limits assumed): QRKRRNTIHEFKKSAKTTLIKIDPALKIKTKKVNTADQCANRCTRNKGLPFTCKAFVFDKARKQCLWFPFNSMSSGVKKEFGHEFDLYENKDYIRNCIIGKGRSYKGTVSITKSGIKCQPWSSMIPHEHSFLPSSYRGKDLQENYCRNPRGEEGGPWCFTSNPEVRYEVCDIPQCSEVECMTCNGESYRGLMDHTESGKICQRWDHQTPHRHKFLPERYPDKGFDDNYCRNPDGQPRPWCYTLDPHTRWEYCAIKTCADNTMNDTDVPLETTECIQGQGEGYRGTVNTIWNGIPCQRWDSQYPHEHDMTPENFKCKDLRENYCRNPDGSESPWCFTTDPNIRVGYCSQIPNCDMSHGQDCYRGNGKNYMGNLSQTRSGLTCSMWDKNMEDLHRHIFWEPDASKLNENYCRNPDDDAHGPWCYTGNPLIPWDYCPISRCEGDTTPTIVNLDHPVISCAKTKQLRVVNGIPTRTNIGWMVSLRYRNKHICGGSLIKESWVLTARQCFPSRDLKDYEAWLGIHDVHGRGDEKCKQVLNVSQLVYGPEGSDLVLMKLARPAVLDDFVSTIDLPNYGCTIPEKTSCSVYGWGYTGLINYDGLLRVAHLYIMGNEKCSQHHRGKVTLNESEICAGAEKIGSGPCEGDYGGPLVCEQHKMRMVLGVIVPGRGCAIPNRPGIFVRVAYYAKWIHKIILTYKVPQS
# Experiment: Biacore SPR
Kd [nM],koff [s⁻¹],kon [M⁻¹ s⁻¹],Binder
< 0.0284,0.000284,> 1e+07,B1

# Target: T1, PlGF
# Experiment: direct bind ELISA, N-terminal VD
row,EC50 [nM],Binder
1,0.14,B2
2,88.5,B3
3,0.14,B4

# Target: T3, VEGF (UniProt P15692 27-191, limits assumed)
# T3 construct: bought antigen coated on the ELISA plate
# T3 sequence (P15692 other isoform, or with tags, fused parts or gaps limits assumed): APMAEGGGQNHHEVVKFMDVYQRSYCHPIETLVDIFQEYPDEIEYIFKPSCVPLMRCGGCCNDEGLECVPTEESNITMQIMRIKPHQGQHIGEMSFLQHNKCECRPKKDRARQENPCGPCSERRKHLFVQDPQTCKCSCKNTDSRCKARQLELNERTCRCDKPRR
# Experiment: direct bind ELISA, N-terminal VD
row,EC50 [nM],Binder
1,1.49,B5
2,0.8,B6
3,1.96,B7
4,2.35,B8
5,3.12,B9
6,15.2,B10
7,17.6,B11
8,25.8,B12
9,17.7,B13
10,314,B14
11,3.14,B15

# Target: T1, PlGF
# Experiment: direct bind ELISA, C-terminal VD
# Experimental: Enzyme Linked Immunosorbent Assays to screen for antibodies that bind a desired target antigen were performed as follows. […] Plates were washed four times with PBS containing 0.02% Tween 20. Plates were blocked by the addition of 300 μL/well blocking solution (non-fat dry milk powder, various retail suppliers, diluted to 2% in PBS) for ½ hour at room temperature. Plates were washed four times after blocking with PBS containing 0.02% Tween 20.
# Plates were washed 4 times with PBS containing 0.02% Tween 20.
row,EC50 [nM],Binder
1,1.42,B5
2,13,B6
3,3.37,B7
4,13.8,B8
5,2.53,B9
6,0.45,B10
7,1.44,B11
8,7.03,B12
9,1.12,B13
10,8.54,B14
11,2.84,B15
